Measured values published in US9284543B2, “Neutral active soluble truncated PH20 polypeptides and uses thereof” (Halozyme, Inc., priority 2008, dated 2016).
One block for each molecule: values may come before it.

Tests used:
CHO-S cells = test: Western blot analysis of PH20 expression in media and cells after transient expression; type: cell-based, Chinese Hamster; conditions: media versus cells
Method in brief: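 CHO-S cells were transiently transfected with mutant PH20-HZ24 plasmids using GeneJuice and expressed for 48-72 h at 37 °C, 5% CO2. Media and cells were harvested separately, with PI-PLC treatment used to release GPI-anchored protein. Non-reduced samples were blotted with rabbit anti-PH20 (0.5 μg/mL), and a band near 66 kDa was scored as PH20.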

[1] = Microtiter hyaluronidase activity assay with biotinylated-hyaluronic acid; type: biochemical; conditions: Table 6, 72 hour post transfection supernatant

pH 5.5 Activity [1]: 1.341 Units/ml | pH 7.4 Activity [1]: 1.2105 Units/ml
B1: SPAM1-PPME: C-terminally truncated human PH20, precursor 474 aa (SEQ ID NO:26), mature 439 aa (SEQ ID NO:78) (protein, listed as Homo sapiens)
chain 1: MGVLKFKHIFFRSFVKSSGVSQIVFTFLLIPCCLTLNFRAPPVIPNVPFLWAWNAPSEFCLGKFDEPLDMSLFSFIGSPRINATGQGVTIFYVDRLGYYPYIDSITGVTVNGGIPQKISLQDHLDKAKKDITFYMPVDNLGMAVIDWEEWRPTWARNWKPKDVYKNRSIELVQQQNVQLSLTEATEKAKQEFEKAGKDFLVETIKLGKLLRPNHLWGYYLFPDCYNHHYKKPGYNGSCFNVEIKRNDDLSWLWNESTALYPSIYLNTQQSPVAATLYVRNRVREAIRVSKIPDAKSPLPVFAYTRIVFTDQVLKFLSQDELVYTFGETVALGASGIVIWGTLSIMRSMKSCLLLDNYMETILNPYIINVTLAAKMCSQVLCQEQGVCIRKNWNSSDYLHLNPDNFAIQLEKGGKFTVRGKPTLEDLEQFSEKFYCSCYSTLSCKEKADVKDTDAVDVCIADGVCIDAFLKPPME
chain 2: LNFRAPPVIPNVPFLWAWNAPSEFCLGKFDEPLDMSLFSFIGSPRINATGQGVTIFYVDRLGYYPYIDSITGVTVNGGIPQKISLQDHLDKAKKDITFYMPVDNLGMAVIDWEEWRPTWARNWKPKDVYKNRSIELVQQQNVQLSLTEATEKAKQEFEKAGKDFLVETIKLGKLLRPNHLWGYYLFPDCYNHHYKKPGYNGSCFNVEIKRNDDLSWLWNESTALYPSIYLNTQQSPVAATLYVRNRVREAIRVSKIPDAKSPLPVFAYTRIVFTDQVLKFLSQDELVYTFGETVALGASGIVIWGTLSIMRSMKSCLLLDNYMETILNPYIINVTLAAKMCSQVLCQEQGVCIRKNWNSSDYLHLNPDNFAIQLEKGGKFTVRGKPTLEDLEQFSEKFYCSCYSTLSCKEKADVKDTDAVDVCIADGVCIDAFLKPPME
modifications: HuPH20 precursor 1-474; Mature HuPH20 36-474
Expressed in Media (CHO-S cells): YES

pH 5.5 Activity [1]: 0.9 Units/ml | pH 7.4 Activity [1]: 0.5445 Units/ml
B2: SPAM1-LKPP: C-terminally truncated human PH20, precursor 472 aa (SEQ ID NO:28), mature 437 aa (SEQ ID NO:80) (protein, listed as Homo sapiens)
chain 1: MGVLKFKHIFFRSFVKSSGVSQIVFTFLLIPCCLTLNFRAPPVIPNVPFLWAWNAPSEFCLGKFDEPLDMSLFSFIGSPRINATGQGVTIFYVDRLGYYPYIDSITGVTVNGGIPQKISLQDHLDKAKKDITFYMPVDNLGMAVIDWEEWRPTWARNWKPKDVYKNRSIELVQQQNVQLSLTEATEKAKQEFEKAGKDFLVETIKLGKLLRPNHLWGYYLFPDCYNHHYKKPGYNGSCFNVEIKRNDDLSWLWNESTALYPSIYLNTQQSPVAATLYVRNRVREAIRVSKIPDAKSPLPVFAYTRIVFTDQVLKFLSQDELVYTFGETVALGASGIVIWGTLSIMRSMKSCLLLDNYMETILNPYIINVTLAAKMCSQVLCQEQGVCIRKNWNSSDYLHLNPDNFAIQLEKGGKFTVRGKPTLEDLEQFSEKFYCSCYSTLSCKEKADVKDTDAVDVCIADGVCIDAFLKPP
chain 2: LNFRAPPVIPNVPFLWAWNAPSEFCLGKFDEPLDMSLFSFIGSPRINATGQGVTIFYVDRLGYYPYIDSITGVTVNGGIPQKISLQDHLDKAKKDITFYMPVDNLGMAVIDWEEWRPTWARNWKPKDVYKNRSIELVQQQNVQLSLTEATEKAKQEFEKAGKDFLVETIKLGKLLRPNHLWGYYLFPDCYNHHYKKPGYNGSCFNVEIKRNDDLSWLWNESTALYPSIYLNTQQSPVAATLYVRNRVREAIRVSKIPDAKSPLPVFAYTRIVFTDQVLKFLSQDELVYTFGETVALGASGIVIWGTLSIMRSMKSCLLLDNYMETILNPYIINVTLAAKMCSQVLCQEQGVCIRKNWNSSDYLHLNPDNFAIQLEKGGKFTVRGKPTLEDLEQFSEKFYCSCYSTLSCKEKADVKDTDAVDVCIADGVCIDAFLKPP
modifications: HuPH20 precursor 1-472; Mature HuPH20 36-472
Expressed in Media (CHO-S cells): YES

pH 5.5 Activity [1]: 2.0925 Units/ml | pH 7.4 Activity [1]: 2.223 Units/ml
B3: SPAM1-PMET: C-terminally truncated human PH20, precursor 475 aa (SEQ ID NO:25), mature 440 aa (SEQ ID NO:77) (protein, listed as Homo sapiens)
chain 1: MGVLKFKHIFFRSFVKSSGVSQIVFTFLLIPCCLTLNFRAPPVIPNVPFLWAWNAPSEFCLGKFDEPLDMSLFSFIGSPRINATGQGVTIFYVDRLGYYPYIDSITGVTVNGGIPQKISLQDHLDKAKKDITFYMPVDNLGMAVIDWEEWRPTWARNWKPKDVYKNRSIELVQQQNVQLSLTEATEKAKQEFEKAGKDFLVETIKLGKLLRPNHLWGYYLFPDCYNHHYKKPGYNGSCFNVEIKRNDDLSWLWNESTALYPSIYLNTQQSPVAATLYVRNRVREAIRVSKIPDAKSPLPVFAYTRIVFTDQVLKFLSQDELVYTFGETVALGASGIVIWGTLSIMRSMKSCLLLDNYMETILNPYIINVTLAAKMCSQVLCQEQGVCIRKNWNSSDYLHLNPDNFAIQLEKGGKFTVRGKPTLEDLEQFSEKFYCSCYSTLSCKEKADVKDTDAVDVCIADGVCIDAFLKPPMET
chain 2: LNFRAPPVIPNVPFLWAWNAPSEFCLGKFDEPLDMSLFSFIGSPRINATGQGVTIFYVDRLGYYPYIDSITGVTVNGGIPQKISLQDHLDKAKKDITFYMPVDNLGMAVIDWEEWRPTWARNWKPKDVYKNRSIELVQQQNVQLSLTEATEKAKQEFEKAGKDFLVETIKLGKLLRPNHLWGYYLFPDCYNHHYKKPGYNGSCFNVEIKRNDDLSWLWNESTALYPSIYLNTQQSPVAATLYVRNRVREAIRVSKIPDAKSPLPVFAYTRIVFTDQVLKFLSQDELVYTFGETVALGASGIVIWGTLSIMRSMKSCLLLDNYMETILNPYIINVTLAAKMCSQVLCQEQGVCIRKNWNSSDYLHLNPDNFAIQLEKGGKFTVRGKPTLEDLEQFSEKFYCSCYSTLSCKEKADVKDTDAVDVCIADGVCIDAFLKPPMET
modifications: HuPH20 precursor 1-475; Mature HuPH20 36-475
Expressed in Media (CHO-S cells): YES

pH 5.5 Activity [1]: 0.9157 Units/ml | pH 7.4 Activity [1]: 0.8595 Units/ml
B4: SPAM1-KPPM: C-terminally truncated human PH20, precursor 473 aa (SEQ ID NO:27), mature 438 aa (SEQ ID NO:79) (protein, listed as Homo sapiens)
chain 1: MGVLKFKHIFFRSFVKSSGVSQIVFTFLLIPCCLTLNFRAPPVIPNVPFLWAWNAPSEFCLGKFDEPLDMSLFSFIGSPRINATGQGVTIFYVDRLGYYPYIDSITGVTVNGGIPQKISLQDHLDKAKKDITFYMPVDNLGMAVIDWEEWRPTWARNWKPKDVYKNRSIELVQQQNVQLSLTEATEKAKQEFEKAGKDFLVETIKLGKLLRPNHLWGYYLFPDCYNHHYKKPGYNGSCFNVEIKRNDDLSWLWNESTALYPSIYLNTQQSPVAATLYVRNRVREAIRVSKIPDAKSPLPVFAYTRIVFTDQVLKFLSQDELVYTFGETVALGASGIVIWGTLSIMRSMKSCLLLDNYMETILNPYIINVTLAAKMCSQVLCQEQGVCIRKNWNSSDYLHLNPDNFAIQLEKGGKFTVRGKPTLEDLEQFSEKFYCSCYSTLSCKEKADVKDTDAVDVCIADGVCIDAFLKPPM
chain 2: LNFRAPPVIPNVPFLWAWNAPSEFCLGKFDEPLDMSLFSFIGSPRINATGQGVTIFYVDRLGYYPYIDSITGVTVNGGIPQKISLQDHLDKAKKDITFYMPVDNLGMAVIDWEEWRPTWARNWKPKDVYKNRSIELVQQQNVQLSLTEATEKAKQEFEKAGKDFLVETIKLGKLLRPNHLWGYYLFPDCYNHHYKKPGYNGSCFNVEIKRNDDLSWLWNESTALYPSIYLNTQQSPVAATLYVRNRVREAIRVSKIPDAKSPLPVFAYTRIVFTDQVLKFLSQDELVYTFGETVALGASGIVIWGTLSIMRSMKSCLLLDNYMETILNPYIINVTLAAKMCSQVLCQEQGVCIRKNWNSSDYLHLNPDNFAIQLEKGGKFTVRGKPTLEDLEQFSEKFYCSCYSTLSCKEKADVKDTDAVDVCIADGVCIDAFLKPPM
modifications: HuPH20 precursor 1-473; Mature HuPH20 36-473
Expressed in Media (CHO-S cells): YES

pH 5.5 Activity [1]: 2.79 Units/ml | pH 7.4 Activity [1]: 3.321 Units/ml
B5: SPAM1-FLKP: C-terminally truncated human PH20, precursor 471 aa (SEQ ID NO:29), mature 436 aa (SEQ ID NO:81) (protein, listed as Homo sapiens)
chain 1: MGVLKFKHIFFRSFVKSSGVSQIVFTFLLIPCCLTLNFRAPPVIPNVPFLWAWNAPSEFCLGKFDEPLDMSLFSFIGSPRINATGQGVTIFYVDRLGYYPYIDSITGVTVNGGIPQKISLQDHLDKAKKDITFYMPVDNLGMAVIDWEEWRPTWARNWKPKDVYKNRSIELVQQQNVQLSLTEATEKAKQEFEKAGKDFLVETIKLGKLLRPNHLWGYYLFPDCYNHHYKKPGYNGSCFNVEIKRNDDLSWLWNESTALYPSIYLNTQQSPVAATLYVRNRVREAIRVSKIPDAKSPLPVFAYTRIVFTDQVLKFLSQDELVYTFGETVALGASGIVIWGTLSIMRSMKSCLLLDNYMETILNPYIINVTLAAKMCSQVLCQEQGVCIRKNWNSSDYLHLNPDNFAIQLEKGGKFTVRGKPTLEDLEQFSEKFYCSCYSTLSCKEKADVKDTDAVDVCIADGVCIDAFLKP
chain 2: LNFRAPPVIPNVPFLWAWNAPSEFCLGKFDEPLDMSLFSFIGSPRINATGQGVTIFYVDRLGYYPYIDSITGVTVNGGIPQKISLQDHLDKAKKDITFYMPVDNLGMAVIDWEEWRPTWARNWKPKDVYKNRSIELVQQQNVQLSLTEATEKAKQEFEKAGKDFLVETIKLGKLLRPNHLWGYYLFPDCYNHHYKKPGYNGSCFNVEIKRNDDLSWLWNESTALYPSIYLNTQQSPVAATLYVRNRVREAIRVSKIPDAKSPLPVFAYTRIVFTDQVLKFLSQDELVYTFGETVALGASGIVIWGTLSIMRSMKSCLLLDNYMETILNPYIINVTLAAKMCSQVLCQEQGVCIRKNWNSSDYLHLNPDNFAIQLEKGGKFTVRGKPTLEDLEQFSEKFYCSCYSTLSCKEKADVKDTDAVDVCIADGVCIDAFLKP
modifications: HuPH20 precursor 1-471; Mature HuPH20 36-471
Expressed in Media (CHO-S cells): YES
